Reference: paper PMC12675543 (Nature Communications, 2025)

Key:
Assay in all cases: SPR; biotinylated p62 constructs or His-MBP immobilised on streptavidin sensor chips (520-700 RU); VHHp62 injected in serial dilution; 50 mM Tris, 150 mM NaCl, 1 mM TCEP, 0.05% Tween-20, pH 7.4, 25 °C; kinetic 1:1 model
Settings in all cases: both partners purified
[1] = biological target: T1, His-MBP-p62(85-440)-Avi (Homo sapiens, UniProt Q13501, biotinylated)
T1 construct: also called immunogen; p62 lacking essential parts of the PB1 domain; source: recombinant; not shown: His, N-terminal, kept; MBP, N-terminal, kept; Avi, C-terminal, kept

[2] = biological target: T2, p62(122-181)-Avi (Homo sapiens, UniProt Q13501, biotinylated)
T2 construct: p62 (SQSTM1), human, ZZ domain, residues 122-181; also called p62ZZ; p62 ZZ domain; source: E. coli BL21 (DE3), purified (IMAC, 3C cleavage, SEC); not shown: His-MBP, N-terminal, cleaved; Avi, C-terminal, kept

[3] = biological target: T3, His-MBP-avi (Escherichia coli K12 (assumed), UniProt P0AEX9 = MBP, biotinylated)
T3 construct: Control surface protein in SPR; also called His-MBP tag; not shown: His, N-terminal, kept; Avi, C-terminal, kept

[4] = biological target: T4, p62(387-446)-Avi (Homo sapiens, UniProt Q13501, biotinylated)
T4 construct: p62 (SQSTM1), human, UBA domain, printed as residues 387-446; SPR construct; also called p62UBA; p62 ubiquitin associated domain; source: E. coli BL21 (DE3), purified (IMAC, 3C cleavage, SEC); not shown: His-MBP, N-terminal, cleaved; Avi, C-terminal, kept

B1: VHHp62-His (6C10) (VHH)
VHH: EVQLVESGGGLVQPGGSLRLSCVASGFTFSNYWMYWVRQAPGKGLEWVSTINTGSGAAYYTSSVKGRFTISRDNAKNTLYLQMNSLKSEDTAVYYCATDLRGAQRGQGTQVTVSS
notes: anti-p62 VHH from immunised llamas, phage display clone 6C10; the AlphaFold2 model of VHHp62 had 121 residues; also called VHH 6C10; p62 single-domain antibody; source: Pichia pastoris (Komagataella phaffii), secreted, purified (IMAC, desalting); not shown: His, C-terminal, kept
With B1 the Kd [1] was 11 nM, the binding result [2] was “no binding” and the binding result [3] was “no binding”. It also gave a Kd [4] of 36 nM.
